Measurements from US20230399641A1 (SHANGHAITECH UNIVERSITY, published 2023).

Molecular target: T1, receptor binding domain (RBD) of wildtype SARS-CoV-2 spike (residues 319-541) (SARS-CoV-2, UniProt P0DTC2 319-541)
T1 construct: range 319-541
Test: SPR, purified ACE2 protein on purified RBD of SARS-CoV-2 spike

B1: purified human ACE2 mutant Q24del (receptor)
chain: STIEEAKTFLDKFNHEAEDLFYQSSLASWNYNTNITEENVQNMNNAGDKWSAFLKEQSTLAQMYPLQEIQNLTVKLQLQALQQNGSSVLSEDKSKRLNTILNTMSTIYSTGKVCNPDNPQECLLLEPGLNEIMANSLDYNERLWAWESWRSEVGKQLRPLYEEYVVLKNEMARANHYEDYGDYWRGDYEVNGVDGYDYSRGQLIEDVEHTFEEIKPLYEHLHAYVRAKLMNAYPSYISPIGCLPAHLLGDMWGRFWTNLYSLTVPFGQKPNIDVTDAMVDQAWDAQRIFKEAEKFFVSVGLPNMTQGFWENSMLTDPGNVQKAVCHPTAWDLGKGDFRILMCTKVTMDDFLTAHHEMGHIQYDMAYAAQPFLLRNGANEGFHEAVGEIMSLSAATPKHLKSIGLLSPDFQEDNETEINFLLKQALTIVGTLPFTYMLEKWRWMVFKGEIPKDQWMKKWWEMKREIVGVVEPVPHDETYCDPASLFHVSNDYSFIRYYTRTLYQFQFQEALCQAAKHEGPLHKCDISNSTEAGQKLFNMLRLGKSEPWTLALENVVGAKNMNVRPLLNYFEPLFTWLKDQNKNSFVGWSTDWSPYAD
With B1 the Kd was 416 nM.
